Reference: doi:10.1101/2025.11.05.686744 (bioRxiv, 2025)

Assays:
[1] = target: Spindlin1 (residues 50-262) (human, UniProt Q9Y657 50-262); assay: NMR titration
[2] = target: Spindlin1^C96A/H252F (residues 50-262) (human, UniProt Q9Y657 50-262, C96A | H252F); assay: NMR titration
Sequence of Spindlin1^C96A/H252F (residues 50-262) (Q9Y657 50-262 C96A/H252F): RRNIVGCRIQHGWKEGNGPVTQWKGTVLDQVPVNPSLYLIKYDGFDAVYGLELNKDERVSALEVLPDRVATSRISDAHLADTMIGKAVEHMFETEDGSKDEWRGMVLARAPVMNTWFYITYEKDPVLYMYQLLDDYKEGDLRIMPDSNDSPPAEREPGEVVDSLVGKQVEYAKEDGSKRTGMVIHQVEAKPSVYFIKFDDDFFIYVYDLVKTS

Sequence of Spindlin1 (residues 50-262) (Q9Y657 50-262): as the sequence (Q9Y657 50-262 C96A/H252F) above, with A47C, F203H counted along it

B1: HBx_(1-120) protein genotype D (Hepatitis B virus protein X, short isoform) (domain or fragment)
chain: MAARLCCQLDPARDVLCLRPVGAESCGRPFSGSLGTLSSPSPSAVPTDHGAHLSLRGLPVCAFSSAGPCALRFTSARRMETTVNAHQILPKVLHKRTLGLSAMSTTDLEAYFKDCLFKDW
binding result [1]: binds

B2: HBx_(1-120)^C61A/C69A (domain or fragment, Hepatitis B virus genotype D, UniProt P03165 1-120, looked up)
chain: MAARLCCQLDPARDVLCLRPVGAESCGRPFSGSLGTLSSPSPSAVPTDHGAHLSLRGLPVAAFSSAGPAALRFTSARRMETTVNAHQILPKVLHKRTLGLSAMSTTDLEAYFKDCLFKDW
binding result [2]: binds
